Data reported in patent US20240398899A1 (priority 2021, published 2024).
Values joined by “and” are separate entries in the source; they are usually repeats but may differ in a detail not shown here. Identical values can stand only once.

How the values were obtained:
SH-SY5Y neuronal cells [1] = test: Cytoprotective effect against MPP+ iodide induced damage, MTT assay; conditions: MPP+ iodide 1 mM
Method: The Human Neuronal SH-SY5Y Cells were counted using hemocytometer and plated in 96 well plate at a density of 25,000 cells/well and incubated at 37° C. for 24 h. After incubation, cells were treated with recombinant lectin protein having the sequence of SEQ ID NO: 1 at concentrations ranging from 0.001 μg/ml 50 μg/ml for 24 h. After 24 h of treatment, cells were exposed to neurotoxin (MPP+ iodide, 1 mM) for 24 h. Cells treated with MPP+ iodide alone were included as negative control. Untreated cells were included as control. […] After treatment, the cytoprotective effect of SEQ ID NO: 1 on cell viability was assessed by 3-(4,5-dimethythiazol-2-yl)-2,5-diphenyl tetrazolium bromide (MTT) assay: The plate was taken out and 20 μl of 5 mg/ml of MTT 3-(4,5-dimethythiazol-2-yl)-2,5-diphenyl tetrazolium bromide solution was added to all the wells. The SH-SY5Y cells were incubated for 3 h at 37° C. The supernatant was aspirated and 150 μl of DMSO was added to each well to dissolve formazan crystals. The absorbance of each well was read at 540 nm using Synergy HT micro plate reader. The protective effect of the SEQ ID NO: 1 on survival of SH-SY5Y cells against MPP+ iodide induced damage was determined as: The viability of cells was determined as:
Where, the percentage cytotoxicity corresponding to each treatment was calculated as follows:
[formula] • X=Absorbance of cells treated with MPP+ iodide/recombinant lectin having SEQ ID NO: 1+MPP+Iodide • R=Absorbance of Control cells (Untreated) • Percentage protection was calculated as:
[(Absorbance of SEQ ID NO:1+MPP+Iodide)−(Absorbance of MPP+Iodide)/(Absorbance of Untreated)−(Absorbance of MPP+Iodide alone)]*100

SH-SY5Y neuronal cells [2] = test: Mitochondrial membrane potential against MPP+ iodide damage, JC-1 assay; assay type: cell-based, human; conditions: MPP+ iodide 1 mM; for Mitochondrial membrane potential: red/green fluorescence ratio
Method: The plated cells were incubated overnight in 5% CO2 incubator at 37° C. After 24 h, cells were treated with concentrations of recombinant lectin protein having SEQ ID NO: 1 ranging from 1 μg/ml-50 μg/ml for 24 h. After 24 h of treatment, cells were exposed to damage (MPP+ iodide 1 mM) for 24 h. […] Untreated cells were included as control. Cells treated with Deprenyl served as positive control. After MPP+ iodide exposure, the protective effect of recombinant lectin protein having SEQ ID NO: 1 on mitochondrial membrane potential was assessed by JC-1 assay as follows; after incubation, the supernatants were discarded and 100 μl of JC1-dye solution (prepared by diluting 1 mM DMSO stock in to 10 μM in 1×PBS) was added to each well. The cells were then incubated with the dye in CO2 incubator at 37° C. for 15 min. After 15 min of incubation, the supernatant was removed, and the cells were washed twice with 1×PBS (phosphate buffer saline). 100 μl of 1×PBS was finally added to each well. Red fluorescence (excitation 550 nm, emission 600 nm) and green fluorescence (excitation 485 nm, emission 535 nm) were measured using Biotek Synergy HT plate reader. The mitochondrial membrane potential (Δψm) was calculated as the ratio of intensity of red fluorescence to intensity of green fluorescence described as follows: • Δψm=Intensity of red fluorescence/Intensity of green fluorescence • The percentage increase/restoration in Mitochondrial Membrane Potential against MPP+ iodide damage was calculated as:
[formula] • Where X=Δψm corresponding to SEQ ID NO: 1+ MPP+ iodide treated cells • R=Δψm corresponding to control cells (MPP+ iodide damage alone)

neuronal cells (pc12) = test: Neurite formation, basal model; assay type: cell-based, rat
Method: Cells were counted using haemocytometer and plated in 24-well plates at the densities corresponding to 1×10^4 cells/well/500 μl of the growth medium. The cells were then incubated for 48 h in 5% CO2 incubator at 37° C. Effect of Recombinant Lectin having SEQ ID NO: 1 on neurite formation was evaluated in both basal and MPP+ damage induced model.
For basal model the percent increase in neurite formation was determined as follows

[3] = system: Brain NGF (Nerve Growth Factor); test: Brain biomarker ELISA, scopolamine induced dementia; assay type: in vivo, Mus musculus (Swiss Albino); conditions: for brain nerve growth factor (NGF) Mean: scopolamine 2.5 mg/kg i.p., mice
Method: Healthy male Swiss albino mice (n=48) were selected and randomized based on body weight (n=8 per Group) into 6 groups as mentioned in table no-1. The control group G1 was treated intravenously with vehicle daily till the experiment completion. Group G2 was considered as negative control and treated with vehicle. […] Group G4, G5 &G6 animals were treated with the test item recombinant lectin protein having SEQ ID NO: 1 at the dose of 0.5 mg/kg, 0.25 mg/kg and 0.125 mg/kg, respectively. All the test items were given intravenously (i.v) daily at the dose volume of 5 ml/kg for 14 Days. The body weight was recorded daily throughout the experimental period. […] One hour after the last dose of test items (on Day 14) all the animals were injected with scopolamine hydrobromide at the dose of 2.5 mg/kg, i.p., except the normal control group G1. Passive avoidance test was conducted 30 min after scopolamine injection.
After passive avoidance test screening models of memory, the animals were sacrificed humanely. The whole brain was carefully removed from the skull and weighed. Brain was dissected into two portions
10% w/v brain homogenate (100 mg/mL) was prepared by homogenizing it in ice-chilled phosphate buffer. The homogenate was subsequently centrifuged using a refrigerated centrifuge at 3000 rpm for 10 min, and the supernatant was separated and used for the biochemical estimations.
Following biomarkers was estimated using ELISA kit as per manufacturer's instruction. • Brain NGF (Nerve Growth Factor), CUSABIO, Catalog No. CSB-E04684m • Acetylcholinesterase, CUSABIO, Catalog No. CSB-E17521m • TNF alpha, CUSABIO, Catalog No. CSB-E04741m

B1: SEQ ID NO: 1: variant of the S. rolfsii lectin amino acid sequence (reported as Rec-2 in WO2010/095143) (protein)
chain: TYKITVRVYQTNPDAFFHPVEKTVWKYANGGTWTITDDQHVLTMGGSGTSGTLRFHADNGESFTATFGVHNYKRWCDIVTNLAADETGMVINQQYYSQKNREEARERQLSNYQVKNAKGRNFQIVYTEAEGNDLHANLIIG
SH-SY5Y neuronal cells [1]; 0.001 μg/mL
  Percentage Protection: 58.6%
  Percentage Viability (w.r.t control): 85.1%
  Percentage cytotoxicity: 14.9%
SH-SY5Y neuronal cells [1]; 0.01 μg/mL
  Percentage Protection: 61.8%
  Percentage Viability (w.r.t control): 86.3%
  Percentage cytotoxicity: 13.7%
SH-SY5Y neuronal cells [1]; 0.05 μg/mL
  Percentage Protection: 68.8%
  Percentage Viability (w.r.t control): 88.8%
  Percentage cytotoxicity: 11.2%
SH-SY5Y neuronal cells [1]; 0.1 μg/mL
  Percentage Protection: 52.6%
  Percentage Viability (w.r.t control): 83%
  Percentage cytotoxicity: 17%
SH-SY5Y neuronal cells [1]; 1 μg/mL
  Percentage Protection: 40.2%
  Percentage Viability (w.r.t control): 78.8%
  Percentage cytotoxicity: 21.2%
SH-SY5Y neuronal cells [1]; 5 μg/mL
  Percentage Protection: 49.6%
  Percentage Viability (w.r.t control): 82.1%
  Percentage cytotoxicity: 17.9%
SH-SY5Y neuronal cells [1]; 10 μg/mL
  Percentage Protection: 85.6%
  Percentage Viability (w.r.t control): 94.9%
  Percentage cytotoxicity: 5.1%
SH-SY5Y neuronal cells [1]; 25 μg/mL
  Percentage Protection: 78.6%
  Percentage Viability (w.r.t control): 92.4%
  Percentage cytotoxicity: 7.6%
SH-SY5Y neuronal cells [1]; 50 μg/mL
  Percentage Protection: 62.1%
  Percentage Viability (w.r.t control): 86.6%
  Percentage cytotoxicity: 13.4%
SH-SY5Y neuronal cells [2]; 1 μg/mL
  % Increase in Mitochondrial potential (w.r.t. control): 22.7%
  Mitochondrial membrane potential: 2.3
SH-SY5Y neuronal cells [2]; 5 μg/mL
  % Increase in Mitochondrial potential (w.r.t. control): 86.6%
  Mitochondrial membrane potential: 3.4
SH-SY5Y neuronal cells [2]; 10 μg/mL
  % Increase in Mitochondrial potential (w.r.t. control): 115.9%
  Mitochondrial membrane potential: 4
SH-SY5Y neuronal cells [2]; 25 μg/mL
  % Increase in Mitochondrial potential (w.r.t. control): 84.7%
  Mitochondrial membrane potential: 3.4
SH-SY5Y neuronal cells [2]; 50 μg/mL
  % Increase in Mitochondrial potential (w.r.t. control): 77.5%
  Mitochondrial membrane potential: 3.3
Neuronal cells (pc12); 0.001 μg/ml
  % Protection in the formation of Neurites (w.r.t. MPP+): 54.7%
  Average No. of Neurites: 27
Neuronal cells (pc12); 0.01 μg/ml
  % Protection in the formation of Neurites (w.r.t. MPP+): 47.2%
  Average No. of Neurites: 26
Neuronal cells (pc12); 0.1 μg/ml
  % Protection in the formation of Neurites (w.r.t. MPP+): 18.9%
  Average No. of Neurites: 21
Neuronal cells (pc12); 5 μg/ml
  % Protection in the formation of Neurites (w.r.t. MPP+): 34%
  Average No. of Neurites: 24
[3]; 0.25 mg/kg, scopolamine treated mice
  level of NGF (brain): 62 µg/mL
[3]; G4: 0.5 mg/kg i.v. qdx14
  brain nerve growth factor (NGF) Mean: 71.6 pg/mL and 71.59 pg/mL
[3]; G5: 0.25 mg/kg i.v. qdx14
  brain nerve growth factor (NGF) Mean: 61.96 pg/mL
[3]; G6: 0.125 mg/kg i.v. qdx14
  brain nerve growth factor (NGF) Mean: 38.62 pg/mL
